From article PMC10589346, “Structural basis for recruitment of TASL by SLC15A4 in human endolysosomal TLR signaling” (Nature Communications, 2023)
Each block holds one binder with its values, some of them ahead of it.

What was measured:
[1] = target: T1, human SLC15A4 with C-terminus flag-tag (co-expressed with TASL(1–20)-EGFP for cryo-EM) (human, UniProt Q8N697 1-577, N-glycosylation at N436); assay: cryo-EM structure; SLC15A4-Flag and TASL(1–20)-EGFP-twin Strep co-expressed in HEK293F, complex purified by Strep-Tactin and SEC; 25 mM HEPES pH 7.4, 150 mM NaCl, 0.003% LMNG, 0.0003% CHS; 10–15 mg/ml; 3.03 Å, no symmetry imposed; settings: both partners purified
T1 construct: human SLC15A4 (solute carrier family 15 member 4, PHT1), codon-optimized full-length cDNA, Uniprot Q8N697; pcDNA3.1 vector; residues 1–31 not visible in the map; also called PHT1; Solute carrier family 15 member 4; source: HEK293F, co-transfected with TASL(1–20)-EGFP, complex purified (Strep-Tactin, SEC) in LMNG/CHS; not shown: Flag, C-terminal, kept

[2] = target: the molecule itself; assay: cryo-EM structure; SLC15A4-ALFA tag co-expressed with ALFA nanobody in HEK293F, complex purified (Strep-Tactin, SEC) in LMNG/CHS; monomeric and dimeric particles found, monomer solved at 3.25 Å
[3] = target: the molecule itself; assay: cryo-EM structure; apo SLC15A4 (twin Strep-tag) from HEK293F in LMNG/CHS micelles; 25 mM HEPES pH 7.4, 150 mM NaCl; monomeric and dimeric particles found, dimer solved at 2.93 Å

T1 sequence (Q8N697 whole entry, the tested form may be a part): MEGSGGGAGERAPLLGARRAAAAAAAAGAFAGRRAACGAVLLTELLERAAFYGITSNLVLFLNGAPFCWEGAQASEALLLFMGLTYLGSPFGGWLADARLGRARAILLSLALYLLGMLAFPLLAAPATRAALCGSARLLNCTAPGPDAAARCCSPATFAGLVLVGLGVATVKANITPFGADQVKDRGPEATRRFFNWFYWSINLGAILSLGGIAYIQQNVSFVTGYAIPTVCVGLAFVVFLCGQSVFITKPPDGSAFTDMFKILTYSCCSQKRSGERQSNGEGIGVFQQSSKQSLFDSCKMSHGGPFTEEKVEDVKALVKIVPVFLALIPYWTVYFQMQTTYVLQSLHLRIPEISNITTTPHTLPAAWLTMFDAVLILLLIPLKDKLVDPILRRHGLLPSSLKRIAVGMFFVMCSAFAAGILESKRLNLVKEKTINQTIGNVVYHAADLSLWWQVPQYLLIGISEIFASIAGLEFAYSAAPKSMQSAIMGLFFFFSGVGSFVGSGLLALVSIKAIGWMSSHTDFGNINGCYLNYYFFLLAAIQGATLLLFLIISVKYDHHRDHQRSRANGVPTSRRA

stoichiometry N [1]: 1
B1: TASL(1–20)-EGFP with C-terminus twin Strep-tag (domain or fragment, human, UniProt Q9HAI6 1-20, looked up)
chain: MLSEGYLSGLEYWNDIHWSC
notes: pCAG vector; also called CXorf21; source: HEK293F, co-transfected with SLC15A4-Flag, complex purified (Strep-Tactin, SEC) in LMNG/CHS; not shown: EGFP, C-terminal, kept; twin Strep-tag, C-terminal, kept

B2: human SLC15A4 with the 253–303 residues replaced by an ALFA tag (natural protein)
chain: not shown
modifications: N-glycosylation at N436
notes: human SLC15A4, Uniprot Q8N697, from the start to residue 252; ALFA tag, put in place of residues 253–303 (loop between TM6 and TM7); human SLC15A4, Uniprot Q8N697, from residue 304 to the end; The complex was purified on Strep-Tactin by a 'similar protocol'; also called ALFA tagged SLC15A4; SLC15A4-ALFA tag; source: HEK293F, co-transfected with ALFA nanobody, complex purified (Strep-Tactin, SEC) …
binding result [2]: binds

B3: human full-length SLC15A4 with C-terminus tandem twin Strep-tag (natural protein)
chain: not shown
modifications: N-glycosylation at N436
notes: human SLC15A4 (solute carrier family 15 member 4, PHT1), codon-optimized full-length cDNA, Uniprot Q8N697; also called apo SLC15A4; C-terminal strep-tagged SLC15A4; source: HEK293F, transfected, purified (Strep-Tactin, SEC) in LMNG/CHS; also co-expressed in HEK293F with TASL(1–20&207–301)-Flag; not shown: twin Strep-tag, C-terminal, kept
stoichiometry N [3]: 2
